Experimental data published in US20030153523, “Methods for identifying RNA binding compounds” (University of Medicine and Dentistry of New Jersey, published 2003).

Target: T1, Tat (48-57) peptide (HIV-1)
T1 chain: GRKKRRQRRR

GGCAGAUCUGAGCCUGGGAGCUCUCUGCC (ssRNA) [TAR RNA (wild type)]
Kd: 727 nM
